Assay results from patent US12091453B2, “Epitope specific to SMO protein, antibody recognizing same, and composition comprising same” (HEDGEHOG, INC., priority 2018, dated 2024).
“Also recorded” adds a separate entry of the source.

Key:
Assay type in all cases: cell-based
HCT116 cell line = experiment: Transwell migration assay; details: HCT116, 10 μg/ml, 48 h
Protocol: After HCT116 cell line was plated in a transwell, each of humanized SMO antibody Nos. 7, 15, 16, and 17 was added at a concentration of 10 μg/ml. Following 48 h, cell motility was measured using a Diff-Quik kit.

[1] = tested on: SHH-induced GLI transcriptional activity; experiment: NIH3T3-GLI reporter assay, humanized SMO antibodies; details: NIH3T3-GLI cells, Sonic hedgehog peptide 15 h, 10 and 20 μg/ml antibody 6 h
Protocol: GLI Repoter-NIH3T3 cell line was purchased from BPS Bioscience (CA, USA).
After NIH3T3-GLI cells having GLI transcriptional activity were plated in a 96-well plate at a density of 1×10^4 cells/cm^2, 2% BCS was treated with Sonic hedgehog peptide. Following 15 h, the cells were treated with different concentrations (10 and 20 μg/ml) of each of humanized antibody Nos. 5 (Production Example 6), 7 (Production Example 7), 15 (Production Example 8), 16 (Production Example 9), and 17 (Production Example 10) for 6 h. GLI1 Reporter activity (%) was measured through luminescence using a Reporter assay kit (Promega, WI, USA). The above procedure was repeated except that the SMO small-molecule inhibitor vismodegib or erismodegib was used as a positive control instead of the inventive SMO antibody.

GLI1 = experiment: Western blotting of HCT116 cell line treated with humanized SMO antibodies; details: HCT116, 10 and 20 μg/ml, serum free media
Protocol: (§1) HCT116 cell line was purchased from the Korean Cell Line Bank. 24 h after cells were plated in a […] at a density of 5×10^5 cells/cm^2, they were treated with different concentrations (10 and 20 μg/ml) of each of humanized SMO antibody Nos. 5, 7, 15, 16, and 17 in serum free media.
(§2) Cells were disrupted by a combination of mechanical homogenization and sonication in a lysis buffer (7 M urea, 2 M thiourea, 4% CHAPS, 40 mM Tris, 100 mM DTT) supplemented with protease, followed by centrifugation at 15,000 rpm and 4° C. for 20 min. Proteins in the supernatant were quantified with NanoDrop by bicinchoninic acid (BCA) assay.
(§3) 30 μg of the proteins isolated from the collected tissues were subjected to electrophoresis, transferred to a PVDF membrane, labeled with anti-GLI1 antibody (cell signaling, MA, USA), anti-SMO antibody (Santa Cruz, CA, USA), and anti β-actin antibody as primary antibodies and an HRP-conjugated anti-rabbit antibody as a secondary antibody, and detected by chemiluminescence staining. The expression levels of SMO protein were measured by the enhanced chemiluminescence (ECL) method.

SMO = experiment: as above; details: HCT116, 10 and 20 μg/ml, serum free media
Protocol: as §1, §2, §3

| Molecule | cell motility (HCT116 cell line) | transcriptional activity of GLI (GLI1 Reporter activity) [1] | expression level of GLI1 protein (GLI1) | expression level of SMO protein (SMO) | cell motility compared to treatment with vismodegib or erismodegib (positive control) (HCT116 cell line) |
| --- | --- | --- | --- | --- | --- |
| humanized SMO antibody No. 7: humanized SMO antibody, VH SEQ ID NO: 23 and VL SEQ ID NO: 28 (antibody, V domains shown, huSM01-21-07 VH; huSM01-21-07 VL) VH: QVQLVQSGAEVKKPGASVKVSCKASGYTFTEYTMHWVRQAPGQRLEWMGGINPNTGDTRYNQKFKGRVTITVDKSASTAYMELSSLRSEDTAVYYCARDYYGSPFVYWGQGTLVTVSS VL: DIVMTQSPLSLPVTPGEPASISCRSSQSIVHSSGYTFLDWYLQKPGQSPQLLIYKVSNRFSGVPDRFSGSGSGTDFTLKISRVEAEDVGVYYCFQGSHVPLTFGGGTKVEIK | reduction in cell motility | significantly inhibited the transcriptional activity of GLI; also recorded: effectively inhibit the SHH-induced GLI transcriptional activity | reduce the expression levels | reduce the expression levels |  |
| humanized SMO antibody No. 17: humanized SMO antibody, VH SEQ ID NO: 26 and VL SEQ ID NO: 29 (antibody, V domains shown, huSM01-21-17 VH; huSM01-21-15 VL) VH: EVQLVQSGAEVKKPGATVKISCKVSGYTFTEYTMHWVQQAPGKGLEWMGGINPNTGDTRYNQKFKGRVTITVDKSTDTAYMELSSLRSEDTAVYYCARDYYGSPFVYWGQGTLVTVSS VL: DIQMTQSPSSLSASVGDRVTITCRSSQSIVHSSGYTFLDWYQQKPGKAPKLLIYKVSNRFSGVPSRFSGSGSGTDFTLTISSLQPEDFATYYCFQGSHVPLTFGQGTKVEIK | reduction in cell motility; also recorded: highest activities to reduce cell mobility | significantly inhibited the transcriptional activity of GLI; also recorded: effectively inhibit the SHH-induced GLI transcriptional activity | reduce the expression levels | reduce the expression levels | significantly inhibited cell motility |
| humanized SMO antibody No. 15: humanized SMO antibody, VH SEQ ID NO: 24 and VL SEQ ID NO: 29 (antibody, V domains shown, huSM01-21-15 VH; huSM01-21-15 VL) VH: QVQLVQSGAEVKKPGASVKVSCKASGYTFTEYTMHWVRQAPGQRLEWMGGINPNTGDTRYNQKFKGRVTITVDKSASTAYMELSSLRSEDTAVYYCARDYYGSPFVYWGQGTLVTVSS VL: DIQMTQSPSSLSASVGDRVTITCRSSQSIVHSSGYTFLDWYQQKPGKAPKLLIYKVSNRFSGVPSRFSGSGSGTDFTLTISSLQPEDFATYYCFQGSHVPLTFGQGTKVEIK | reduction in cell motility | significantly inhibited the transcriptional activity of GLI; also recorded: effectively inhibit the SHH-induced GLI transcriptional activity | reduce the expression levels | reduce the expression levels |  |
| humanized SMO antibody No. 16: humanized SMO antibody, VH SEQ ID NO: 25 and VL SEQ ID NO: 29 (antibody, V domains shown, huSM01-21-16 VH; huSM01-21-15 VL) VH: QVQLVQSGAEVKKPGASVKVSCKASGYTFTEYTMHWVRQAPGQGLEWMGGINPNTGDTRYNQKFKGRVTMTVDKSTSTVYMELSSLRSEDTAVYYCARDYYGSPFVYWGQGTLVTVSS VL: DIQMTQSPSSLSASVGDRVTITCRSSQSIVHSSGYTFLDWYQQKPGKAPKLLIYKVSNRFSGVPSRFSGSGSGTDFTLTISSLQPEDFATYYCFQGSHVPLTFGQGTKVEIK | reduction in cell motility; also recorded: highest activities to reduce cell mobility | significantly inhibited the transcriptional activity of GLI; also recorded: effectively inhibit the SHH-induced GLI transcriptional activity | reduce the expression levels | reduce the expression levels | significantly inhibited cell motility |
